According to publication PMC6326841:
Changes are numbered by the printed parent chain. In names and notes the source's numbering stands. One block for each molecule: values may come before it.

Columns and labels:
[1] = target: pyrene-labeled rabbit skeletal muscle F-actin (rabbit) (UniProt P68135); assay: stopped-flow fluorescence
[2] = target: pyrene-labeled rabbit skeletal muscle F-actin (rabbit) (UniProt P68135); assay: other fluorescence titration
[3] = target: RLC-depleted porcine cardiac myosin (pig (endogenous in porcine ventricular muscle)) (UniProt P79293); assay: reconstitution of RLC-depleted myosin, SDS-PAGE densitometry
[4] = target: RLC-depleted porcine cardiac myosin (pig (endogenous in porcine ventricular muscle)) (UniProt P79293); assay: reconstitution of RLC-depleted skinned muscle strips, SDS-PAGE densitometry

kobs of actin-myosin dissociation at 10 μM MgATP [1]: 8.25 s⁻¹
kobs of actin-myosin dissociation at 25 μM MgATP [1]: 15.7 s⁻¹
kobs of actin-myosin dissociation at 40 μM MgATP [1]: 27.3 s⁻¹
kobs of actin-myosin dissociation at 80 μM MgATP [1]: 48.9 s⁻¹
kobs of actin-myosin dissociation at 150 μM MgATP [1]: 82.2 s⁻¹
kobs of actin-myosin dissociation at 250 μM MgATP [1]: 107 s⁻¹
Kd [2]: 2.13 nM
Molecule: porcine cardiac myosin reconstituted with human cardiac WT RLC (from UniProt P79293 1-1935; P10916 1-166) (complex)

kobs of actin-myosin dissociation at 10 μM MgATP [1]: 7.29 s⁻¹
kobs of actin-myosin dissociation at 25 μM MgATP [1]: 14.7 s⁻¹
kobs of actin-myosin dissociation at 40 μM MgATP [1]: 25.3 s⁻¹
kobs of actin-myosin dissociation at 80 μM MgATP [1]: 41.5 s⁻¹
kobs of actin-myosin dissociation at 150 μM MgATP [1]: 74 s⁻¹
kobs of actin-myosin dissociation at 250 μM MgATP [1]: 111 s⁻¹
Kd [2]: 3.53 nM
Molecule: porcine cardiac myosin reconstituted with human cardiac S15D-R58Q RLC (from UniProt P79293 1-1935; P10916 1-166) (complex)

kobs of actin-myosin dissociation at 10 μM MgATP [1]: 7.26 s⁻¹
kobs of actin-myosin dissociation at 25 μM MgATP [1]: 15.1 s⁻¹
kobs of actin-myosin dissociation at 40 μM MgATP [1]: 23.6 s⁻¹
kobs of actin-myosin dissociation at 80 μM MgATP [1]: 45.6 s⁻¹
kobs of actin-myosin dissociation at 150 μM MgATP [1]: 69.2 s⁻¹
kobs of actin-myosin dissociation at 250 μM MgATP [1]: 107 s⁻¹
Kd [2]: 13.3 nM
Molecule: porcine cardiac myosin reconstituted with human cardiac R58Q RLC (from UniProt P79293 1-1935; P10916 1-166) (complex)

% RLC Present [3]: 87.2%
% RLC Present [4]: 61.3%
B1: human ventricular (cardiac) myosin regulatory light chain, wild type (natural protein)
chain: MAPKKAKKRAGGANSNVFSMFEQTQIQEFKEAFTIMDQNRDGFIDKNDLRDTFAALGRVNVKNEEIDEMIKEAPGPINFTVFLTMFGEKLKGADPEETILNAFKVFDPEGKGVLKADYVREMLTTQAERFSKEEVDQMFAAFPPDVTGNLDYKNLVHIITHGEEKD

% RLC Present [3]: 86.9%
% RLC Present [4]: 64.5%
B2: human ventricular myosin regulatory light chain S15D-R58Q phosphomimic double mutant (natural protein)
chain: B1 chain with S15D, R58Q

% RLC Present [3]: 75.7%
% RLC Present [4]: 54%
B3: human ventricular myosin regulatory light chain R58Q mutant (natural protein)
chain: B1 chain with R58Q
